Laboratory results from US20030138894A1 (Human Genome Sciences, published 2003).
No end group written: not given here.

B1: ACE-2 binding polypeptide PFECDWGPWTLEMLCGPP (peptide)
peptide: PFECDWGPWTLEMLCGPP
modifications: not fully specified (N-terminus, C-terminus, bridges); cysteine pairing not given here
B2: ACE-2 binding polypeptide RIGCRDSRCNWWAPG (peptide)
peptide: RIGCRDSRCNWWAPG
modifications: not fully specified (N-terminus, C-terminus, bridges); cysteine pairing not given here
B3: ACE-2 binding polypeptide RGFCRDSSCSFP (peptide)
peptide: RGFCRDSSCSFP
modifications: not fully specified (N-terminus, C-terminus, bridges); cysteine pairing not given here
B4: ACE-2 binding polypeptide SPTCRALFCVDF (peptide)
peptide: SPTCRALFCVDF
modifications: not fully specified (N-terminus, C-terminus, bridges); cysteine pairing not given here
B5: ACE-2 binding polypeptide WPTCLTMDCVYN (peptide)
peptide: WPTCLTMDCVYN
modifications: not fully specified (N-terminus, C-terminus, bridges); cysteine pairing not given here
B6: ACE-2 binding polypeptide WVLCFEWEDCDEK (peptide)
peptide: WVLCFEWEDCDEK
modifications: not fully specified (N-terminus, C-terminus, bridges); cysteine pairing not given here
B7: ACE-2 binding polypeptide VYFCFDWEQDCDEM (peptide)
peptide: VYFCFDWEQDCDEM
modifications: not fully specified (N-terminus, C-terminus, bridges); cysteine pairing not given here
B8: ACE-2 binding polypeptide WAVCFDWEN-CGDK (peptide)
peptide: WAVCFDWENCGDK
modifications: not fully specified (bridges); printed as W A V C F D W E N - C G D K; cysteine pairing not given here
notes: one position printed as '-'

These binders were tested against T1, FLAG-tagged ACE-2 target (human, UniProt Q9BYF1 18-740) (assay: phage ELISA on FLAG-ACE-2).
T1 construct: range 1-740; obtained from Human Genome Sciences, Inc; also called FLAG-ACE-2; tagged human ACE-2; not shown: FLAG tag
T1 sequence (Q9BYF1 18-740 limits assumed): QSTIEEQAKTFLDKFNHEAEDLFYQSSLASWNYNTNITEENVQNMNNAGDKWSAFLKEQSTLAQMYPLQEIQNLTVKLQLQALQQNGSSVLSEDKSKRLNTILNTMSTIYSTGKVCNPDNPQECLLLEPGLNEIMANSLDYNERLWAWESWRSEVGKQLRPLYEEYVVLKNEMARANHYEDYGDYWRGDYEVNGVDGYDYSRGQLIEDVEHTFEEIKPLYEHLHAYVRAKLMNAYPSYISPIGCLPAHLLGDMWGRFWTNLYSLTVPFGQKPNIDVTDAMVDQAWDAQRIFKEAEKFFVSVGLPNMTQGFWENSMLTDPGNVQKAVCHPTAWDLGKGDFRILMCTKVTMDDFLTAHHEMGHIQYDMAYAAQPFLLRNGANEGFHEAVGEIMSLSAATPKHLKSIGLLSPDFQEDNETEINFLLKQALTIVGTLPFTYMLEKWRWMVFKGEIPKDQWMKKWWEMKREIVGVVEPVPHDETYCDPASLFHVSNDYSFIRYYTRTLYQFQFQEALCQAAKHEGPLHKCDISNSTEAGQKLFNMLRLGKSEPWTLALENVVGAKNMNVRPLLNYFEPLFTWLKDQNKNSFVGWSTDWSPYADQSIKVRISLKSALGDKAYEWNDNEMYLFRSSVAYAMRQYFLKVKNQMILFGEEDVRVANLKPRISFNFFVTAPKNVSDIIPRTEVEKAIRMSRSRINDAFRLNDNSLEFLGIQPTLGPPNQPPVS
Description: Phage enriched from the third round of selection were screened by ELISA for strong ACE-2 binders. Immulon 2 96-well plates (Dynatech) were coated with streptavidin for 1 hour at 37° C. and subsequently coated with anti-FLAG antibody for 1 hour at room temperature. Half of the plates were further coated with FLAG-ACE-2 as the target plates, and the other half of the plates were coated with FLAG peptide as background plates. The amount of each protein or peptide coated was 100 ng per well. The coated plates were then incubated for 1 hour at room temperature with 1:2 diluted overnight phage cultures that were made by inoculating phage from individual plaques into bacterial host cells. After being washed 7 times with PBST, the plates were incubated with HRP-conjugated anti-M13 antibody (Pharmacia) for 1 hour at room temperature, washed 5 times, developed with TMB peroxidase substrate solution (Kirkegaad & Perry Laboratories, Gaithersburg, Md.), and read at 630 nm on an ELISA plate reader.

Row | Binder | binding result
1 | HSECRWEWFGRTMICMSF (not fully specified (bridges); cysteine pairing not given here) [ACE-2 binding polypeptide HSECRWEWFGRTMICMSF] | binds
2 | SGECNWQQFSGWEICLRD (not fully specified (bridges); cysteine pairing not given here) [ACE-2 binding polypeptide SGECNWQQFSGWEICLRD] | binds
3 | AYLCDWILFDSFEMCLAP (not fully specified (bridges); cysteine pairing not given here) [ACE-2 binding polypeptide AYLCDWILFDSFEMCLAP] | binds
4 | B1 | binds
5 | RGHCRDSRCMMNAPG (not fully specified (bridges); cysteine pairing not given here) [ACE-2 binding polypeptide RGHCRDSRCMMNAPG] | binds
6 | B2 | binds
7 | B3 | binds
8 | RGWCLDSRCKVF (not fully specified (bridges); cysteine pairing not given here) [ACE-2 binding polypeptide RGWCLDSRCKVF] | binds
9 | FLFCRLASRDSRCASP (not fully specified (bridges); cysteine pairing not given here) [ACE-2 binding polypeptide FLFCRLASRDSRCASP] | binds
10 | FNPCRLQSRDSACRFR (not fully specified (bridges); cysteine pairing not given here) [ACE-2 binding polypeptide FNPCRLQSRDSACRFR] | binds
11 | B4 | binds
12 | FFPCRALEKDSRCSFF (not fully specified (bridges); cysteine pairing not given here) [ACE-2 binding polypeptide FFPCRALEKDSRCSFF] | binds
13 | HFSCRLPSLDSRCQLW (not fully specified (bridges); cysteine pairing not given here) [ACE-2 binding polypeptide HFSCRLPSLDSRCQLW] | binds
14 | NDVCLNDDCVYG (not fully specified (bridges); cysteine pairing not given here) [ACE-2 binding polypeptide NDVCLNDDCVYG] | binds
15 | B5 | binds
16 | HYNCHTNDCVVL (not fully specified (bridges); cysteine pairing not given here) [ACE-2 binding polypeptide HYNCHTNDCVVL] | binds
17 | HLRCMTSDCIHF (not fully specified (bridges); cysteine pairing not given here) [ACE-2 binding polypeptide HLRCMTSDCIHF] | binds
18 | B6 | binds
19 | YEYCFEWEQCWEK (not fully specified (bridges); cysteine pairing not given here) [ACE-2 binding polypeptide YEYCFEWEQCWEK] | binds

Row | Binder | binding result
20 | GIFCFEWETCYQA (not fully specified (bridges); cysteine pairing not given here) [ACE-2 binding polypeptide GIFCFEWETCYQA] | binds
21 | SENCQALFCVDF (not fully specified (bridges); cysteine pairing not given here) [ACE-2 binding polypeptide SENCQALFCVDF] | binds
22 | IGFCFEWEVCYEG (not fully specified (bridges); cysteine pairing not given here) [ACE-2 binding polypeptide IGFCFEWEVCYEG] | binds
23 | SIYCFDWEDCWDE (not fully specified (bridges); cysteine pairing not given here) [ACE-2 binding polypeptide SIYCFDWEDCWDE] | binds
24 | YDWCFDWEQCWDQ (not fully specified (bridges); cysteine pairing not given here) [ACE-2 binding polypeptide YDWCFDWEQCWDQ] | binds
25 | VGFCFDWEPCDEL (not fully specified (bridges); cysteine pairing not given here) [ACE-2 binding polypeptide VGFCFDWEPCDEL] | binds
26 | MDFCFDWEECWTN (not fully specified (bridges); cysteine pairing not given here) [ACE-2 binding polypeptide MDFCFDWEECWTN] | binds
27 | NIFCFDWEPCHFG (not fully specified (bridges); cysteine pairing not given here) [ACE-2 binding polypeptide NIFCFDWEPCHFG] | binds
28 | FEICFDWEVCHEQ (not fully specified (bridges); cysteine pairing not given here) [ACE-2 binding polypeptide FEICFDWEVCHEQ] | binds
29 | DYLCFDWEACWLS (not fully specified (bridges); cysteine pairing not given here) [ACE-2 binding polypeptide DYLCFDWEACWLS] | binds
30 | YAMCFDWDECFLG (not fully specified (bridges); cysteine pairing not given here) [ACE-2 binding polypeptide YAMCFDWDECFLG] | binds
31 | YQFCFDWETTCWLD (not fully specified (bridges); cysteine pairing not given here) [ACE-2 binding polypeptide YQFCFDWETTCWLD] | binds
32 | B7 | binds
33 | FQLCFDWEEECEES (not fully specified (bridges); cysteine pairing not given here) [ACE-2 binding polypeptide FQLCFDWEEECEES] | binds
34 | B8 | binds
35 | WQFCFDWDLNCDLR (not fully specified (bridges); cysteine pairing not given here) [ACE-2 binding polypeptide WQFCFDWDLNCDLR] | binds
36 | YWFCFDWEEDANGHCGGN (not fully specified (bridges); cysteine pairing not given here) [ACE-2 binding polypeptide YWFCFDWEEDANGHCGGN] | binds
37 | FLLCFDWDIDWEYGCQHH (not fully specified (bridges); cysteine pairing not given here) [ACE-2 binding polypeptide FLLCFDWDIDWEYGCQHH] | binds
38 | YEECHWRPMACSTH (not fully specified (bridges); cysteine pairing not given here) [ACE-2 binding polypeptide YEECHWRPMACSTH] | binds
